Data: patent US20030068675, “Position dependent recognition of GNN nucleotide triplets by zinc fingers” (published 2003)
Residue numbers refer to the chain shown, from its start.

Assays:
Assay in all cases: EMSA
Details in all cases: tags: MBP fusion
[1] = target: ZFP SBS#1356 (synthetic)
Procedure, shortened: (§1)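 Purified ZFP was titrated against labeled double-stranded target (1 nM or lower, at least 10-fold below expected Kd) carrying the natural binding site with flanks. Binding buffer was 10 mM Tris pH 7.5, 100 mM KCl, 1 mM MgCl2, 0.1 mM ZnCl2, 5 mM DTT, 10% glycerol, 0.02% BSA, with equilibration for at least 45 min. Bound and free target were separated on a 10% polyacrylamide gel.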

[2] = target: ZFP SBS#1355 (synthetic)
Procedure, shortened: as §1

[3] = target: T1, ZFP SBS#1318 (synthetic, UniProt P08047)
T1 chain: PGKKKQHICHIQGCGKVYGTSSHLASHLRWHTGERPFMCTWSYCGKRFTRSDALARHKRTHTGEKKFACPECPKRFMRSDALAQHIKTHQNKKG
Procedure, shortened: as §1

[4] = target: T2, ZFP SBS#1319 (synthetic)
T2 chain: T1 chain with T20M, S22H, A25T, S26T
Procedure, shortened: as §1

[5] = target: T3, ZFP SBS#1339 (synthetic)
T3 chain: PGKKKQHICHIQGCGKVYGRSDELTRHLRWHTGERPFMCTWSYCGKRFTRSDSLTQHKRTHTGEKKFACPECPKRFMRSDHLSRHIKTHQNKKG
Procedure, shortened: as §1

[6] = target: T4, ZFP SBS#1338 (synthetic)
T4 chain: T3 chain with S53A
Procedure, shortened: as §1

[7] = target: T5, ZFP SBS#1341 (synthetic)
T5 chain: T3 chain with D80H
Procedure, shortened: as §1

[8] = target: T6, ZFP SBS#1340 (synthetic)
T6 chain: T3 chain with S53A, D80H
Procedure, shortened: as §1

[9] = target: T7, ZFP SBS#1357 (synthetic)
T7 chain: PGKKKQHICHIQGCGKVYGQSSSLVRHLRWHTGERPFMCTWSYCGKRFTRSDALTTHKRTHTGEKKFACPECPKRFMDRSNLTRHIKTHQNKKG
Procedure, shortened: as §1

[10] = target: T8, ZFP SBS#1358 (synthetic)
T8 chain: T7 chain with S51A, T55M, T56V
Procedure, shortened: as §1

[11] = target: ZFP SBS#1352 (synthetic)
Procedure, shortened: as §1

[12] = target: T9, ZFP SBS#1342 (synthetic)
T9 chain: T3 chain with E23N, T25R, R26E, D52S, S53D, Q56R, H81N, S83T, R84E
Procedure, shortened: as §1

[13] = target: T10, ZFP SBS#1343 (synthetic)
T10 chain: T3 chain with E23N, R26T, S51T, D52S, S53T, Q56R, H81N, S83T, R84E
Procedure, shortened: as §1

[14] = target: ZFP SBS#1350 (synthetic)
Procedure, shortened: as §1

[15] = target: T11, ZFP SBS#1347 (synthetic)
T11 chain: T3 chain with E23A, R26S, R50Q, D52H, S53H, Q56T, H81N, S83T, R84E
Procedure, shortened: as §1

[16] = target: T12, ZFP SBS#1320 (synthetic)
T12 chain: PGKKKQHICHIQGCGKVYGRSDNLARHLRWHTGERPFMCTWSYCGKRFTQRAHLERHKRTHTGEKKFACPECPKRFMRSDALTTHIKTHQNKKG
Procedure, shortened: as §1

[17] = target: T13, ZFP SBS#1321 (synthetic)
T13 chain: T12 chain with S79A, T83M, T84V
Procedure, shortened: as §1

[18] = target: T14, ZFP SBS#1335 (synthetic)
T14 chain: T7 chain with Q20D, S21R, S23H, V25T, R50Q, D52S, A53D, T56R, R79S
Procedure, shortened: as §1

[19] = target: T15, ZFP SBS#1334 (synthetic)
T15 chain: T3 chain with E23A, T25R, R26E, D52S, S53D, Q56R, H81D, S83R, R84E
Procedure, shortened: as §1

[20] = target: ZFP SBS#1322 (synthetic)
Procedure, shortened: as §1

[21] = target: ZFP SBS#1323 (synthetic)
Procedure, shortened: as §1

[22] = target: ZFP SBS#1324 (synthetic)
Procedure, shortened: as §1

[23] = target: T16, ZFP SBS#1344 (synthetic)
T16 chain: T12 chain with R20D, S21R, D22S, A25T, Q50D, A52S, E55A, A81T, T83R, T84E
Procedure, shortened: as §1

[24] = target: T17, ZFP SBS#1326 (synthetic)
T17 chain: T1 chain with S22G, A25V, S26R, R50Q, D52S, A55T, A83T, Q84K
Procedure, shortened: as §1

[25] = target: T18, ZFP SBS#1328 (synthetic)
T18 chain: T12 chain with R20T, D22G, N23H, A25V, R51S, A52S, H53A, E55T
Procedure, shortened: as §1

[26] = target: T19, ZFP SBS#1325 (synthetic)
T19 chain: T1 chain with S22G, A25V, S26R, R50T, D52G, A53S, A55T, A83T, Q84K
Procedure, shortened: as §1

[27] = target: T20, ZFP SBS#1327 (synthetic)
T20 chain: T12 chain with R20T, D22G, N23H, A25V, Q50T, R51S, A52G, H53S, E55T
Procedure, shortened: as §1

[28] = target: T21, ZFP SBS#1348 (synthetic)
T21 chain: T3 chain with E23A, R26A, R50Q, S51A, D52A, S53T, Q56T
Procedure, shortened: as §1

[29] = target: T22, ZFP SBS#1351 (synthetic)
T22 chain: T3 chain with E23A, T25R, R26E, R50Q, D52H, S53D, Q56K
Procedure, shortened: as §1

[30] = target: T23, ZFP SBS#1353 (synthetic, UniProt P08047)
T23 chain: T1 chain with T20Q, S22G, A25N, S26Q, A53E, A55Q, A83R, Q84E
Procedure, shortened: as §1

[31] = target: T24, ZFP SBS#1354 (synthetic, UniProt P08047)
T24 chain: T1 chain with T20K, S21N, S22W, H23K, A25Q, S26A, A53E, A55Q, A83R, Q84E
Procedure, shortened: as §1

[32] = target: ZFP SBS#1346 (synthetic)
Procedure, shortened: as §1

[33] = target: ZFP SBS#1330 (synthetic)
Procedure, shortened: as §1

[34] = target: T25, ZFP SBS#1336 (synthetic)
T25 chain: T1 chain with T20Q, S22G, S26R, R50Q, D52S, A53D, A55T, A81H, Q84E
Procedure, shortened: as §1

[35] = target: ZFP SBS#1337 (synthetic)
Procedure, shortened: as §1

ZFP SBS#1337 (synthetic), sequence (chain, as listed by the source): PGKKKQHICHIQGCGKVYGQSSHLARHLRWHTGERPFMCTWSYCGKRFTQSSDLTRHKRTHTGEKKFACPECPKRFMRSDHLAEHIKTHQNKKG
ZFP SBS#1352 (synthetic), sequence (chain, as listed by the source): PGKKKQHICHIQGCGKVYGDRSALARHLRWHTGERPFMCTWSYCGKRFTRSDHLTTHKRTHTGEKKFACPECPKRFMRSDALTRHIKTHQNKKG
ZFP SBS#1330 (synthetic), sequence (chain, as listed by the source): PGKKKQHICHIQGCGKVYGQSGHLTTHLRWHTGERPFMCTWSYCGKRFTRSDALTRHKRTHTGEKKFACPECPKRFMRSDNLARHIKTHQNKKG
ZFP SBS#1322 (synthetic), sequence (chain, as listed by the source): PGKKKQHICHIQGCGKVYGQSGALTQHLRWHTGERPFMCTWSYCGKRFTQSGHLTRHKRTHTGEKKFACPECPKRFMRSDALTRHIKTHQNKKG
ZFP SBS#1350 (synthetic), sequence (chain, as listed by the source): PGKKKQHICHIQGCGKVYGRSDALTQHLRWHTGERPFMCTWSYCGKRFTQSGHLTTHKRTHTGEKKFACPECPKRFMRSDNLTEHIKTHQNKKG
ZFP SBS#1324 (synthetic), sequence (chain, as listed by the source): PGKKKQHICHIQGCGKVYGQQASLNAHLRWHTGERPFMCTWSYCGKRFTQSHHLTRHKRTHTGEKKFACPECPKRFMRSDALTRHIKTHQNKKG
ZFP SBS#1356 (synthetic), sequence (chain, as listed by the source): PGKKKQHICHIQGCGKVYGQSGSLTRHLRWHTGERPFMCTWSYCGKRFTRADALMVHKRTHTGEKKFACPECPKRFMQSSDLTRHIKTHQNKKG
ZFP SBS#1355 (synthetic), sequence (chain, as listed by the source): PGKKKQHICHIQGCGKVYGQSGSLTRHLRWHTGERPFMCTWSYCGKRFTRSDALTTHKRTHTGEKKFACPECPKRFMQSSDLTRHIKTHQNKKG

B1: GCTTTGGCA (dsDNA)
DNA 1: GCTTTGGCA
DNA 2: TGCCAAAGC
In the case of B1, the Kd [1] is reported as 0.034 nM and the Kd [2] is reported as 0.172 nM.

B2: ATGGTGTGT (dsDNA)
DNA 1: ATGGTGTGT
DNA 2: ACACACCAT
For B2, the Kd [3] was 0.048 nM and the Kd [4] was 0.228 nM.

B3: GGGATGGCG (dsDNA)
DNA 1: GGGATGGCG
DNA 2: CGCCATCCC
B3 showed a Kd [5] of 0.569 nM, a Kd [6] of 1.04 nM and a Kd [7] of 4.1 nM. For the same binder, the Kd [8] was 0.751 nM.

B4: GACTTGGTA (dsDNA)
DNA 1: GACTTGGTA
DNA 2: TACCAAGTC
B4 was tested, and the Kd [9] was 0.032 nM and the Kd [10] was 0.05 nM.

B5: GTGTGGGTC (dsDNA)
DNA 1: GTGTGGGTC
DNA 2: GACCCACAC
In the case of B5, the Kd [11] is reported as 0.023 nM.

B6: CAGGCGCAG (dsDNA)
DNA 1: CAGGCGCAG
DNA 2: CTGCGCCTG
B6 showed a Kd [12] of 0.68 nM and a Kd [13] of 37 nM.

B7: CAGTGAATG (dsDNA)
DNA 1: CAGTGAATG
DNA 2: CATTCACTG
For B7, the Kd [14] was 74.1 nM and the Kd [15] was 8.23 nM.

B8: TTGGGAGAG (dsDNA)
DNA 1: TTGGGAGAG
DNA 2: CTCTCCCAA
For B8, the Kd [16] was 0.044 nM and the Kd [17] was 0.127 nM.

B9: GACGCTGGC (dsDNA)
DNA 1: GACGCTGGC
DNA 2: GCCAGCGTC
With B9 the Kd [18] was 1.4 nM.

B10: CCGGCGCTG (dsDNA)
DNA 1: CCGGCGCTG
DNA 2: CAGCGCCGG
With B10 the Kd [19] was 0.31 nM.

B11: GTGGGAATA (dsDNA)
DNA 1: GTGGGAATA
DNA 2: TATTCCCAC
B11 gave a Kd [20] of 0.799 nM, a Kd [21] of 0.744 nM and a Kd [22] of 18.5 nM.

B12: CCGGGCGAC (dsDNA)
DNA 1: CCGGGCGAC
DNA 2: GTCGCCCGG
With B12 the Kd [23] was 2.28 nM.

B13: TTGGTTGGT (dsDNA)
DNA 1: TTGGTTGGT
DNA 2: ACCAACCAA
B13 was tested, and the Kd [24] was 4.38 nM, the Kd [25] was 7.95 nM and the Kd [26] was 0.306 nM. It also gave a Kd [27] of 0.566 nM.

B14: GGGTCACTG (dsDNA)
DNA 1: GGGTCACTG
DNA 2: CAGTGACCC
Work on B14 yielded a Kd [28] of 2.58 nM and a Kd [29] of 0.234 nM.

B15: CTGGCGAGA (dsDNA)
DNA 1: CTGGCGAGA
DNA 2: TCTCGCCAG
In the case of B15, the Kd [30] is reported as 56.5 nM and the Kd [31] is reported as 20.9 nM.

B16: GATGTGTGA (dsDNA)
DNA 1: GATGTGTGA
DNA 2: TCACACATC
In the case of B16, the Kd [32] is reported as 0.153 nM.

B17: GAGGTGTGA (dsDNA)
DNA 1: GAGGTGTGA
DNA 2: TCACACCTC
Binder B17 has a Kd [33] of 0.175 nM.

B18: CGGGCTGGA (dsDNA)
DNA 1: CGGGCTGGA
DNA 2: TCCAGCCCG
Binder B18 has a Kd [34] of 1.4 nM and a Kd [35] of 0.235 nM.
